Laboratory results from article PMC13355314 (2026).

Legend:
[1] = target: biotinylated YPEL5–WDR26^ΔCTLH complex (AviTag on WDR26^ΔCTLH) (UniProt Q9H7D7 1-661; P62699 1-121, biotin on the C-terminal AviTag (BirA)); test: BLI
BRD4 BD1 BD1 = BRD4 BD1 BD1 (Homo sapiens, UniProt O60885, ZZ1-SO2H)

Kd [1] | Kd (BRD4 BD1 BD1) | Binder
23.2 nM | – | BD1 domain of BRD3 (domain or fragment) not shown
16.4 nM | – | BD1 domain of BRD2 (domain or fragment) not shown
– | ~12 nM | YPEL5 (protein) MGRIFLDHIGGTRLFSCANCDTILTNRSELISTRFTGATGRAFLFNKVVNLQYSEVQDRVMLTGRHMVRDVSCKNCNSKLGWIYEFATEDSQRYKEGRVILERALVRESEGFEEHVPSDNS
